Test results taken from article PMC7961048, “Hierarchized phosphotarget binding by the seven human 14-3-3 isoforms” (Nature Communications, 2021).
No end group written: not given here.

T1: full-length human 14-3-3β fused to the C terminus of MBP (human, UniProt P31946 1-246)
T1 construct: not shown: MBP (crystallisable mutant), N-terminal, kept
T1 sequence (looked up): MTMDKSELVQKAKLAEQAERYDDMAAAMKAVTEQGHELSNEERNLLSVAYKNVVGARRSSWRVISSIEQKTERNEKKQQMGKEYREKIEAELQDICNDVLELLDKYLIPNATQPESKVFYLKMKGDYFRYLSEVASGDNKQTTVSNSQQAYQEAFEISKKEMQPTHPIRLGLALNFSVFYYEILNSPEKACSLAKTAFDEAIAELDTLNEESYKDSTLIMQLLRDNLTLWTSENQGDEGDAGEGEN

T2: full-length human 14-3-3γ fused to the C terminus of MBP (human, UniProt P61981 1-247)
T2 construct: not shown: MBP (crystallisable mutant), N-terminal, kept
T2 sequence (looked up): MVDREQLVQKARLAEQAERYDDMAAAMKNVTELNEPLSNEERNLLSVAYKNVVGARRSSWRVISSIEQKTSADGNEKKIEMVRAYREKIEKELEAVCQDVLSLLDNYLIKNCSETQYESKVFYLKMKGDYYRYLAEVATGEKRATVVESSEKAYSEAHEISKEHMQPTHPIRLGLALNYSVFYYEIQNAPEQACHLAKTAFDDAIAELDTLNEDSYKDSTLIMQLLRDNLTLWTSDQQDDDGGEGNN

T3: full-length human 14-3-3ε fused to the C terminus of MBP (human, UniProt P62258 1-255)
T3 construct: not shown: MBP (crystallisable mutant), N-terminal, kept
T3 sequence (looked up): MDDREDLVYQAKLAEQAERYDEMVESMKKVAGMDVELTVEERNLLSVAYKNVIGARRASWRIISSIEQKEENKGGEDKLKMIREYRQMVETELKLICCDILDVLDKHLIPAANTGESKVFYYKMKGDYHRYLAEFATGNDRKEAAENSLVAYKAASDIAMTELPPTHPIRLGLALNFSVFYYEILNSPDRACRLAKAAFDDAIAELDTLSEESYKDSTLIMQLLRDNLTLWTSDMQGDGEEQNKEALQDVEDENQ

T4: full-length human 14-3-3ζ fused to the C terminus of MBP (human, UniProt P63104 1-245)
T4 construct: not shown: MBP (crystallisable mutant), N-terminal, kept
T4 sequence (looked up): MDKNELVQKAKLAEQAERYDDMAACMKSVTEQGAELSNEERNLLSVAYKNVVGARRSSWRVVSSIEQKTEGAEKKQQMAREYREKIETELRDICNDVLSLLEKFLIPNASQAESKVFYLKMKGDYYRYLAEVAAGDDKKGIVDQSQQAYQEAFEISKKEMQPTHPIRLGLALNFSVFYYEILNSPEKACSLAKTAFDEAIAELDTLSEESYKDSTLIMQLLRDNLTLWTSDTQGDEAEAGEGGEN

T5: full-length human 14-3-3η fused to the C terminus of MBP (human, UniProt Q04917 1-246)
T5 construct: not shown: MBP (crystallisable mutant), N-terminal, kept
T5 sequence (looked up): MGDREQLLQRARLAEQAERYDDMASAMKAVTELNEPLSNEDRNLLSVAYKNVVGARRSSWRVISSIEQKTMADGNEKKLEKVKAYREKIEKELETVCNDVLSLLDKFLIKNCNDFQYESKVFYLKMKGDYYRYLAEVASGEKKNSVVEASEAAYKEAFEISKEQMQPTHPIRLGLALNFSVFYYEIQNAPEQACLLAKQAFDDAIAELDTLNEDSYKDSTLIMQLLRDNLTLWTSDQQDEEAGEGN

T6: full-length human 14-3-3σ fused to the C terminus of MBP (human, UniProt P31947 1-248)
T6 construct: not shown: MBP (crystallisable mutant), N-terminal, kept
T6 sequence (looked up): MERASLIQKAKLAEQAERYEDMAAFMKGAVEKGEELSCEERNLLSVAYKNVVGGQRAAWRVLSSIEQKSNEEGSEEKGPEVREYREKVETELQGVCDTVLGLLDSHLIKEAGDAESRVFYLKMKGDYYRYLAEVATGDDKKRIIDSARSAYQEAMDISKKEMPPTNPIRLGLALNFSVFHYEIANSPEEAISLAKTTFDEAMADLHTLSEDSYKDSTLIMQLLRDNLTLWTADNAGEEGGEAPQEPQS

T7: full-length human 14-3-3τ fused to the C terminus of MBP (human, UniProt P27348 1-245)
T7 construct: not shown: MBP (crystallisable mutant), N-terminal, kept
T7 sequence (looked up): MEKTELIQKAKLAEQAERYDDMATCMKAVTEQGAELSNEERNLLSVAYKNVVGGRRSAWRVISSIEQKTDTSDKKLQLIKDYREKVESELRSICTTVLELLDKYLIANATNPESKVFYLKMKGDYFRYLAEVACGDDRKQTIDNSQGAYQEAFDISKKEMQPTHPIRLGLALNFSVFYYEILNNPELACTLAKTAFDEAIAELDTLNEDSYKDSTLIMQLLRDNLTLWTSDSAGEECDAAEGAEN


Assays:
Assay in all cases: fluorescence polarisation
Details in all cases: both partners purified
[1] = target: T1, full-length human 14-3-3β fused to the …
[2] = target: T2, full-length human 14-3-3γ fused to the …
[3] = target: T3, full-length human 14-3-3ε fused to the …
[4] = target: T4, full-length human 14-3-3ζ fused to the …
[5] = target: T5, full-length human 14-3-3η fused to the …
[6] = target: T6, full-length human 14-3-3σ fused to the …
[7] = target: T7, full-length human 14-3-3τ fused to the …

| binding result [1] | binding result [2] | binding result [3] | binding result [4] | binding result [5] | binding result [6] | binding result [7] | Binder |
| --- | --- | --- | --- | --- | --- | --- | --- |
| binds | binds | binds | binds | binds | binds | binds | WLRRASAPLPGLK (also: phosphorylation, site not given here, fluorescent label, unspecified, also called FITC-labeled HSPB6 phosphopeptide; tracer; source: synthetic peptide, amino-terminal FITC labeling) [fluorescently labeled HSPB6 phosphopeptide (fpB6)] |
| binds | binds | binds | binds | binds | binds | binds | RRVRKLPSTTL (not fully specified (residue 10), source: synthetic peptide (in-house, Fmoc)) [RSK1 phospho-PBM peptide RSK1_-1P] |
| binds | binds | binds | binds | binds | binds | binds | RRVRKLPSTTL (not fully specified (residue 9), source: synthetic peptide (in-house, Fmoc)) [RSK1 phospho-PBM peptide RSK1_-2P] |
